From the supplement of paper PMC6757056
± gives the standard deviation of the averaged measurements.

B1: library; a variant is named by its letters at N, in order (parent)
chain: GCUGUCACCGGAAUACCAGCAUCGUCUUGAUGCCCUUGGAAGUCCGGUCUGAUGAGUCCNNNNNGGACGAAACAGC

Legend:
[1] = variants of: B1; experiment: FACS-Seq fitted mean relative fluorescence mCherry/BFP without ligand (log10 relative fluorescence); higher = higher reporter protein expression; conditions: HEK293T, ligand present: no
Summary of the method: (§1)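 Fluorescence is reported as a normalized fitted mean of sorted-bin read counts. Lentivirally transduced HEK293T libraries (mCherry ribozyme-switch reporter, EF1α-BFP marker) were enriched, treated with or without ligand for 48 h, and sorted into 6 mCherry/BFP bins for MiSeq sequencing of PCR-amplified genomic DNA. The normal fit was on log10(mCherry/BFP), scaled to five spiked-in control ribozymes.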

[2] = variants of: B1; experiment: normalized RNA/DNA level with ligand (relative to sTRSVctl = 100) (log10 (% of sTRSVctl)); higher = less ribozyme self-cleavage, higher mRNA level; conditions: ligand concentration (+) RNA-Seq: 5 mM, HEK293T, reporter: mCherry (pCS4076), ligand present: yes
Summary of the method: (§2)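 Ribozyme switch library plasmids linked to reporters were introduced into HEK293T cells at 4 µg per 6-well well, with ligand, if any, added 1 h before. Total RNA was extracted with EDTA 72 h later, reverse-transcribed, amplified, barcoded and sequenced. RNA level was computed from RNA over DNA reads relative to a spiked-in non-cleaving sequence or the top sequences, then scaled and log-transformed. The top set was 25 sequences, values were ×100 and log10, and the cutoff was ≥100 DNA reads.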

[3] = variants of: B1; experiment: normalized RNA/DNA level without ligand (relative to sTRSVctl = 100) (log10 (% of sTRSVctl)); higher = less ribozyme self-cleavage, higher mRNA level; conditions: HEK293T, reporter: mCherry (pCS4076), ligand present: no
Summary of the method: as §2

[4] = variants of: B1; experiment: FACS-Seq fitted mean relative fluorescence mCherry/BFP with ligand (log10 relative fluorescence); ligand concentration (+) FACS-Seq: 1 mM; higher = higher reporter protein expression; conditions: HEK293T, ligand present: yes
Summary of the method: as §1

Variant	FACS-Seq fitted mean (log10) [1]	normalized RNA/DNA level with ligand (log10) [2]	normalized RNA/DNA level without ligand (log10) [3]	FACS-Seq fitted mean (log10) [4]
AUAUA	-0.278 ± 0.26	2.006 ± 0.015	1.75 ± 0.028	0.0109 ± 0.01
AUAUC	0.978 ± 0.081	1.912 ± 0.018	1.94 ± 0.048	1.06 ± 0.012
UUCUU	0.641 ± 0.06	2.03 ± 0.11	1.99 ± 0.057	0.58 ± 0.037
UUCUC	1.19 ± 0.051	1.99 ± 0.049	1.94 ± 0.057	1.15 ± 0.13
CUGGA	1.07 ± 0.09	2.02 ± 0.043	1.84 ± 0.095	1.09 ± 0.045
GUAUU	0.754 ± 0.04	2.01 ± 0.053	1.88 ± 0.046	0.8044 ± 0.005
AUCAA	1.02 ± 0.047	1.95 ± 0.084	1.68 ± 0.12	1.15 ± 0.083
AUCAC	0.845 ± 0.16	1.98 ± 0.022	1.96 ± 0.068	0.786 ± 0.039
GUUUG	0.972 ± 0.24	1.96 ± 0.091	1.77 ± 0.058	0.929 ± 0.17
AUGUA	0.696 ± 0.018	1.97 ± 0.11	1.77 ± 0.046	0.908 ± 0.042
AUGUC	0.983 ± 0.034	1.99 ± 0.11	1.84 ± 0.066	0.935 ± 0.12
AUGUG	0.254 ± 0.065	1.96 ± 0.097	1.87 ± 0.029	0.295 ± 0.11
AUGUU	0.847 ± 0.054	1.93 ± 0.068	1.87 ± 0.031	0.8299 ± 0.0036
GUGAU	-0.224 ± 0.019	2 ± 0.12	1.66 ± 0.024	-0.0667 ± 0.046
UUCGU	0.93 ± 0.0046	2.08 ± 0.14	2.02 ± 0.059	0.939 ± 0.067
CUCUA	0.786 ± 0.075	2.05 ± 0.018	1.78 ± 0.063	0.994 ± 0.09
CUCUU	0.739 ± 0.01	2.032 ± 0.0025	1.91 ± 0.07	0.874 ± 0.038
CUCUC	0.298 ± 0.1	2.03 ± 0.027	1.95 ± 0.045	0.448 ± 0.12
